Reference: patent US20260242478A1 (published 2026)

Assays:
Anti-PSMA Fab [1] = target: T1, Anti-PSMA Fab; assay: clonal phage ELISA; biotinylated anti-PSMA Fab on neutravidin plate; anti-M13 HRP detection; competitor: PSMA antigen pre-added
T1 construct: Biotinylated and captured on neutravidin plates in the phage ELISA; also called 006 PSMA Fab
Description: (§1) Clonal phage were harvested as crude supernatants and screened via standard ELISAs. […] Prior to the addition of clonal phage. wells were incubated with blocking buffer and PSMA antigen or blocking buffer alone. Without washing or aspirating, clonal phage supernatants were then added to the wells and incubated for a short time. Wells were then washed followed by detection of bound phage using a horse radish conjugated anti-M13 antibody.

Anti-PSMA Fab [2] = target: T1, Anti-PSMA Fab; assay: clonal phage ELISA; biotinylated anti-PSMA Fab on neutravidin plate; anti-M13 HRP detection; no PSMA added
Description: as §1

PSMA Fab (006 PSMA Fab) [3] = target: T2, PSMA Fab (006 PSMA Fab); assay: phage ELISA; PSMA Fab on plate pre-incubated with PSMA antigen as competitor, anti-M13 HRP detection;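 note: crude clonal phage supernatants added to Fab-coated wells still holding PSMA antigen in blocking buffer, with bound phage as read-out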
T2 construct: also called Anti-PSMA Fab; anti-PSMA Fab
Description: as §1

PSMA Fab (006 PSMA Fab) [4] = target: T2, PSMA Fab (006 PSMA Fab); assay: phage ELISA; biotinylated PSMA Fab on neutravidin plate, clonal phage supernatant, anti-M13 HRP detection;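 note: wells preincubated with PSMA antigen in blocking buffer or with blocking buffer only before clonal phage were added for a short incubation, then bound phage detected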
Description: as §1

PSMA Fab [5] = target: T3, PSMA Fab; assay: clonal phage ELISA; biotinylated PSMA Fab on neutravidin plate, wells first incubated with PSMA antigen as competitor; anti-M13 HRP detection
T3 construct: also called Anti-PSMA Fab; 006 PSMA Fab
Description: as §1

PSMA Fab [6] = target: T3, PSMA Fab; assay: clonal phage ELISA; biotinylated PSMA Fab on neutravidin plate, blocking buffer alone; anti-M13 HRP detection;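 note: crude clonal phage supernatants added without washing to wells pretreated with blocking buffer with or without PSMA antigen, short incubation, then washed before detecting bound phage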
Description: as §1

PSMA Fab [7] = target: T4, PSMA Fab; assay: BLI (Octet); PSMA Fab on sensor-loaded biotinylated peptide, 1:1 model
T4 construct: also called 006 PSMA Fab; anti-PSMA Fab

| Binder | Phage binding ELISA signal, Anti-PSMA Fab with PSMA antigen (Anti-PSMA Fab [1]) | Phage binding ELISA signal, Anti-PSMA Fab (Anti-PSMA Fab [2]) | Phage binding ELISA signal, Anti-PSMA Fab in presence of PSMA antigen (PSMA Fab (006 PSMA Fab) [3]) | Phage binding ELISA signal, Anti-PSMA Fab (PSMA Fab (006 PSMA Fab) [4]) | other results |
| --- | --- | --- | --- | --- | --- |
| VHPMCTPLWMCVGF [Phage-3628] | 0.0993 | 1.55 |  |  |  |
| TERMCSPSWMCDGF (tested as crude clonal phage supernatant) [Phage-3908] |  |  | 0.0693 | 1.05 |  |
| EDRICEPDWMCAGF [Phage-3475] |  |  |  |  | phage binding ELISA signal, Anti-PSMA Fab in the presence of PSMA (PSMA Fab [5]): 0.105; Phage binding ELISA signal, Anti-PSMA Fab (PSMA Fab [6]): 1.73 |
| SDALCRPHWMCAGF (tested as crude clonal phage supernatant) [Phage-3906] |  |  | 0.061 | 1.06 |  |
| GHMYCSPLWMCEGF (tested as crude clonal phage supernatant) [Phage-3902] |  |  | 0.131 | 1.06 |  |
| VIPLCRPSWMCAAY (tested as crude clonal phage supernatant) [Phage-3910] |  |  | 0.116 | 1.04 |  |
| IVKFCIPQWMCDGF [Phage-3623] | 0.147 | 1.56 |  |  |  |
| DDRVCRPDWMCNGF [Phage-3624] | 0.0665 | 1.56 |  |  |  |
| YMMKCIPEWMCTGL [Phage-3622] | 0.0662 | 1.56 |  |  |  |
| FERVCVPAWMCAGF (tested as crude clonal phage supernatant) [Phage-3899] |  |  | 0.0668 | 1.07 |  |
| SVPSCVPPWMCIGF [Phage-3471] |  |  |  |  | phage binding ELISA signal, Anti-PSMA Fab in the presence of PSMA (PSMA Fab [5]): 0.0613; Phage binding ELISA signal, Anti-PSMA Fab (PSMA Fab [6]): 1.73 |
| DLMMCVPAWMCEGF [Phage-3629] | 0.0929 | 1.55 |  |  |  |
| LERACKPMWMCEGF [Phage-3474] |  |  |  |  | phage binding ELISA signal, Anti-PSMA Fab in the presence of PSMA (PSMA Fab [5]): 0.0863; Phage binding ELISA signal, Anti-PSMA Fab (PSMA Fab [6]): 1.73 |
| DERMCVPEWMCMGM [Phage-3620] | 0.0714 | 1.57 |  |  |  |
| QEVWCRPIWMCEGF [Phage-3472] |  |  |  |  | phage binding ELISA signal, Anti-PSMA Fab in the presence of PSMA (PSMA Fab [5]): 0.109; Phage binding ELISA signal, Anti-PSMA Fab (PSMA Fab [6]): 1.73 |
| GNDYCVPAWMCAGF (tested as crude clonal phage supernatant) [Phage-3900] |  |  | 0.0974 | 1.06 |  |
| GYHLCIPEWMCSGL (tested as crude clonal phage supernatant) [Phage-3904] |  |  | 0.0923 | 1.06 |  |

| Binder | Phage binding ELISA signal, Anti-PSMA Fab with PSMA antigen (Anti-PSMA Fab [1]) | Phage binding ELISA signal, Anti-PSMA Fab (Anti-PSMA Fab [2]) | Phage binding ELISA signal, Anti-PSMA Fab in presence of PSMA antigen (PSMA Fab (006 PSMA Fab) [3]) | Phage binding ELISA signal, Anti-PSMA Fab (PSMA Fab (006 PSMA Fab) [4]) | other results |
| --- | --- | --- | --- | --- | --- |
| LAVKCEPAWMCTGF [Phage-3627] | 0.0802 | 1.55 |  |  |  |
| DWVMCKPEWMCAGF [Phage-3625] | 0.0618 | 1.55 |  |  |  |
| YVMMCVPQWMCTAK (tested as crude clonal phage supernatant) [Phage-3901] |  |  | 0.069 | 1.06 |  |
| VMAVCQPEWMCSGM (tested as crude clonal phage supernatant) [Phage-3909] |  |  | 0.0731 | 1.05 |  |
| ESQYCVPRWMCDGF (tested as crude clonal phage supernatant) [Phage-3898] |  |  | 0.0633 | 1.08 |  |
| FTNYCVPSWMCTGF (From the Peptide-180 optimisation phage library) [Peptide-267] |  |  |  |  | Off rate t1/2 (PSMA Fab [7]): 1.9 min |
| ADHMCVPQWMCSGF [Phage-3619] | 0.103 | 1.57 |  |  |  |
| AGYACVPSWMCEGF [Phage-3626] | 0.105 | 1.55 |  |  |  |
| VVIKCKPEWMCSGF (From the Peptide-180 optimisation phage library) [Peptide-277] |  |  |  |  | Off rate t1/2 (PSMA Fab [7]): 1.9 min |
| ELHLCIPSWMCTGL [Phage-3630] | 0.104 | 1.54 |  |  |  |
| HDYACVPKWMCEGL [Phage-3621] | 0.0818 | 1.57 |  |  |  |
| VVAVCKPLWMCEAF [Phage-3618] | 0.062 | 1.57 |  |  |  |
| EGTWCRPAWMCDGF [Phage-3473] |  |  |  |  | phage binding ELISA signal, Anti-PSMA Fab in the presence of PSMA (PSMA Fab [5]): 0.0819; Phage binding ELISA signal, Anti-PSMA Fab (PSMA Fab [6]): 1.73 |
| ADVLCRPHWMCAGF (tested as crude clonal phage supernatant) [Phage-3905] |  |  | 0.0581 | 1.06 |  |
| SLERCEPPWMCFGF (tested as crude clonal phage supernatant) [Phage-3907] |  |  | 0.0697 | 1.06 |  |
| LGPMCRPNWMCVGL (tested as crude clonal phage supernatant) [Phage-3903] |  |  | 0.0797 | 1.06 |  |
